Here are results for 1 molecule from paper doi:10.1101/2023.08.30.555640 (bioRxiv, 2023).

This assay addresses Wildtype human ubiquitin (human, UniProt P0CG47 1-76). Put plainly: NMR titration.

B1: human ubiquilin2 UBA domain (residues 578 to 621) (domain or fragment)
chain: PEVRFQQQLEQLNAMGFLNREANLQALIATGGDINAAIERLLGS
For the molecule B1, the binding result is “binds”.
